Where a chain is given by its changes, count along the chain named.
How the values were obtained:
Assay in all cases: EIA, captured mAb + biotin peptide
[1] = biological target: T1, HCV bt-134-154 (Peptide 1, HCVc 134-154) (Hepatitis C virus (numbering per HCV-1), biotin (carboxy-terminal per; N-terminal per))
T1 peptide: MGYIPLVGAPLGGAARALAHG

[2] = biological target: T2, HCV bt-141-161 (Peptide 2, HCVc 141-161) (Hepatitis C virus (numbering per HCV-1), biotin (carboxy-terminal per; N-terminal per))
T2 peptide: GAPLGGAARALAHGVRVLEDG

[3] = biological target: T3, HCV bt-151-171 (Peptide 3, HCVc 151-171) (Hepatitis C virus (numbering per HCV-1), biotin (carboxy-terminal per; N-terminal per))
T3 peptide: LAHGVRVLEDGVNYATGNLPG

B1: HCV 208B-174 (antibody, V domains shown)
VH: EVKLEESGGGLVQPGGSMKLSCVASGFSFSSYWMSWVRQSPEKGLDWVAEIRLRSDNYATHYAESVKGRFTISRDDSISRLYLQMNTLRAEDTGIYYCTWMTYWGQGTLVTVSA
VL: QNVLTQSPAIMSASPGEKVTMSCSASSSVTYMFWYQLKPESSPRLLIYDTSNLASGVPVRFSGSGSGTSYSLTISRMEAEDAATYYCQEWSSYPLTFGAGTKLDLKR
With B1 the “Reactivity (OD 492 nm)” value [1] was 0.08 OD units, the “Reactivity (OD 492 nm)” value [2] was 1.26 OD units and the “Reactivity (OD 492 nm)” value [3] was 0.07 OD units.

B2: HCV 208B-589 (antibody, V domains shown)
VH: QVQLQQSGAGLAKPGASVKMSCKASGYTFTANKMHWAKQRPGQGLEWIGYIDPSSGYTEYNHKIQDKATLTADTSSSTAYMQLSSLTFEDSAVYYCTNFAYWGQGTLVTVSA
VL: DIVMTQTPLTLSVTIGQPASISCKSSQSLLFTNGKTYLNWFLQRPGQSPKRLIYLLSKLDSGVPDRFSGSGSGTDFTLKISRVEAEDLGVYYCLQSTYFPLTFGAGTKLELKR
In the case of B2, the “Reactivity (OD 492 nm)” value [1] is reported as 0.27 OD units, the “Reactivity (OD 492 nm)” value [2] is reported as 0.1 OD units and the “Reactivity (OD 492 nm)” value [3] is reported as 2.85 OD units.

B3: HCV 208A-638 (antibody, V domains shown)
VH: QGQLQQPGAEFVKPGASLKLSCRASGYTFTSYWIHWVKQRPGQGLEWIGEVDPSDSYINQNEKFRGKATLTVDKSSSTAYMQLGSLTSEDSAVYYCARHYYGVLDSWGQGTALTVSS
VL: QIVLTQSPTIMSASLGERVTMTCTASSSVSSSYLHWFQQKPGSSPKLWIYSTSNLASGVPPRFSGSGSGTSYSLSISSVEAEDVATYYCLQFHRSPWTFGGGAKLEIKR
For B3, the “Reactivity (OD 492 nm)” value [1] was 0.07 OD units, the “Reactivity (OD 492 nm)” value [2] was 2.96 OD units and the “Reactivity (OD 492 nm)” value [3] was 0.09 OD units.

B4: HCV 208B-560 (antibody, V domains shown)
VH: EVQLQQSGPELEKPGASVKISCKTSGYTFTEYAMHWVKQSHGMSLEWIGGINPSNGNAIYNQIFKDKATLTVDRSSSTAYMGLRSLTFGDSGVYFCVRRQLDFFDYWGQGASLTVSS
VL: DIVVTQSPASLAVSLGQRATISCRASQSVSTSRYSYLHWYQQKPGQPPKLLIKYASNLESGVPARFSGSGSGTDFTLNIHPVGEEDTATYYCQHSWEFPFTFGSGTKLEIKR
B4 was tested, and the “Reactivity (OD 492 nm)” value [1] was 0.11 OD units, the “Reactivity (OD 492 nm)” value [2] was 3.9 OD units and the “Reactivity (OD 492 nm)” value [3] was 0.14 OD units.

B5: HCV 208A-830 (antibody, V domains shown)
VH: EVRLQQPGPEVEKPGASVKISCKTSGYTFTEYAIHWVKQSHGESLEWIGGINPSNGDPIYNQIFKDKATLTVDRSSNTAYMGLRSLTVGDSGVYFCVRRQLDYFDFWGQGASLTVSS
VL: B4 VL with V4L, A25S, T87P
In the case of B5, the “Reactivity (OD 492 nm)” value [1] is reported as 0.07 OD units, the “Reactivity (OD 492 nm)” value [2] is reported as 2.88 OD units and the “Reactivity (OD 492 nm)” value [3] is reported as 0.08 OD units.

B6: HCV 208A-605 (antibody, V domains shown)
VH: B4 VH with M34I
VL: B4 VL
In the case of B6, the “Reactivity (OD 492 nm)” value [1] is reported as 0.22 OD units, the “Reactivity (OD 492 nm)” value [2] is reported as 3.71 OD units and the “Reactivity (OD 492 nm)” value [3] is reported as 0.16 OD units.

B7: HCV 208A-222 (antibody, V domains shown)
VH: B4 VH with K19R, M43K, S54N, F103Y
VL: B4 VL
For B7, the “Reactivity (OD 492 nm)” value [1] was 0.06 OD units, the “Reactivity (OD 492 nm)” value [2] was 2.7 OD units and the “Reactivity (OD 492 nm)” value [3] was 0.08 OD units.

B8: HCV 208A-352 (antibody, V domains shown)
VH: QGQMQQSGAELVKPGASVKLSCKTSGFTFSSSFISWLKQKPGQSLEWIAWIYAGTGNTNYNQKFTDKAQLTVDTSSSTAYMQFSSLTTEDSAIYYCAISGTGFTYWGQGTLVTVSA
VL: DVLMAQTPLSLPVTLGDQASISCRSSQSLVHSNGNTYLEWFLQKPGQSPKLLIYNVSNRFSGVPDRFSGSGSGTDFTLKISRVEAEDLGVYYCFQGSHVPLTFGSGTKLEIKR
For B8, the “Reactivity (OD 492 nm)” value [1] was 1.08 OD units, the “Reactivity (OD 492 nm)” value [2] was 0.07 OD units and the “Reactivity (OD 492 nm)” value [3] was 0.06 OD units.

B9: HCV 208A-134 (antibody, V domains shown)
VH: B8 VH with V12A, F33Y, F83L
VL: EVLMTQSPLSLPVSLGDQASISCRSSQSLEHTNGNTYLEWFLQRPGQPPKLLIYKVSSRFSGVPDRFSGSGSGTDFTLKISRVEAEDLGVYYCFQGSHVPFTFGSGTKLAIKR
B9 was tested, and the “Reactivity (OD 492 nm)” value [1] was 2.06 OD units, the “Reactivity (OD 492 nm)” value [2] was 0.08 OD units and the “Reactivity (OD 492 nm)” value [3] was 0.06 OD units.

B10: HCV 208B-1024 (antibody, V domains shown)
VH: EVQLVESGGDLVKPGGSLKLSCAASGFTFSNYGMSWVRQTPDKRLEWVATISSGGSYSYYPDSVKGRFTISRDNAKNILYLQMSSLKSEDTAMYYCASLYYGYGDYWGQGTAFTVSS
VL: B8 VL with A5T, T14S, L29I, F41Y, P45L, N55R, L101W, S105G
With B10 the “Reactivity (OD 492 nm)” value [1] was 0.08 OD units, the “Reactivity (OD 492 nm)” value [2] was 0.75 OD units and the “Reactivity (OD 492 nm)” value [3] was 0.15 OD units.

B11: HCV 208A-557 (antibody, V domains shown)
VH: B8 VH with F33Y, F83L
VL: B4 VL with V3A, V4L, L37M, K49E, E97D
For B11, the “Reactivity (OD 492 nm)” value [1] was 0.05 OD units, the “Reactivity (OD 492 nm)” value [2] was 2.41 OD units and the “Reactivity (OD 492 nm)” value [3] was 0.06 OD units.

B12: HCV 208B-281 (antibody, V domains shown)
VH: B8 VH with M4L, F33Y, K40R, N57G, T104I
VL: B8 VL with A5T, T14S, S32N, N55K, L101F
With B12 the “Reactivity (OD 492 nm)” value [1] was 1.48 OD units, the “Reactivity (OD 492 nm)” value [2] was 0.16 OD units and the “Reactivity (OD 492 nm)” value [3] was 0.12 OD units.

B13: HCV 208A-983 (antibody, V domains shown)
VH: B8 VH with F33Y, I34F, N59I, S75A, Y80F, F83L, T88I
VL: B8 VL with A5T, T14N, V30L, L101F, E110A
B13 was tested, and the “Reactivity (OD 492 nm)” value [1] was 3.03 OD units, the “Reactivity (OD 492 nm)” value [2] was 0.4 OD units and the “Reactivity (OD 492 nm)” value [3] was 0.05 OD units.

B14: HCV 208A-877 (antibody, V domains shown)
VH: QLQQSGPELVKPGASVKISCKTSGYTFTENAMHWVKQSRGKSLEWIGGVNPNNGDTVYTQKFKGKATLTVAKSSSTAYMELRTMTCEESTVYYCASREPDFFDYWGQGSSVTVSS
VL: QIVLTQSPAIMSVSPGEKVSMTCSASSSVTYMHWYQQKSGTSPKRWIYDTSELASGVPARFSGSGSGTTYSLTISSMEAEDAATYYCQQWSNKPLTFGAGTKLELKR
For B14, the “Reactivity (OD 492 nm)” value [1] was 0.06 OD units, the “Reactivity (OD 492 nm)” value [2] was 1.21 OD units and the “Reactivity (OD 492 nm)” value [3] was 0.05 OD units.

B15: HCV 208A-422 (antibody, V domains shown)
VH: DVQLQESGPGLVNPSQSLSLTCSVTGYSITSGYYWIWIQQSPGNKLEWMGYIKYDGGNNYSPSLKNRISIARDTSKNQCFLKLNSVTIEDTATYYCTRGSDSFDYWGQGTTLTVSS
VL: DIVLTQSPASLAVSLGQRAIISCKASQSVSFAGTNLMHWYQQKPGQQPKLLIYRASNLETGVPTRFSGSGSRTDFTLNIHPVEEDDAATYYCQQSREYYTFGGGTKLEIKR
In the case of B15, the “Reactivity (OD 492 nm)” value [1] is reported as 0.05 OD units, the “Reactivity (OD 492 nm)” value [2] is reported as 0.84 OD units and the “Reactivity (OD 492 nm)” value [3] is reported as 0.1 OD units.

B16: HCV 208A-442 (antibody, V domains shown)
VH: B15 VH with Q39R, S41F, C79F
VL: B15 VL
B16 was tested, and the “Reactivity (OD 492 nm)” value [1] was 0.08 OD units, the “Reactivity (OD 492 nm)” value [2] was 3.04 OD units and the “Reactivity (OD 492 nm)” value [3] was 0.06 OD units.

B17: HCV 208A-874 (antibody, V domains shown)
VH: QVQLQQPGAELVKPGASVKLSCKASGYTLSSYWMHWVKQRPGQGLEWIGEIHPSDSYTSYNQKFKDKATLTVDKSSSTAYMQLSSLTSEDSAVYYCARGGYYRYDEFAYWGQGTLVTVSA
VL: DIVMTQSHKFMSTSIGDRVSITCKASQNVSPAVAWYQQKPGQSPKLLIYSASSRYTGVPDRFTGSGSGTAFTFTISSVQAEDLAVYFCQQHFSTPWTFGGGTMLEIKR
With B17 the “Reactivity (OD 492 nm)” value [1] was 0.05 OD units, the “Reactivity (OD 492 nm)” value [2] was 0.73 OD units and the “Reactivity (OD 492 nm)” value [3] was 0.06 OD units.

B18: HCV 208B-189 (antibody, V domains shown)
VH: QVHLQQSGAELAKPGASVQMSCKASGYTFTANKMHWARQRPRQGLEWIGYIDPASGYTEYNQKIKDRATLTADKSSSTAYMQLSSLTSEDSAVYYCTNFAYWGQGTLVTVST
VL: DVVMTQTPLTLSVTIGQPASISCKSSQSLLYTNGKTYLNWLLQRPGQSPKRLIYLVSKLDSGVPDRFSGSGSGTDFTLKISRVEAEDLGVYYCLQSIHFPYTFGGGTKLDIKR
B18 was tested, and the “Reactivity (OD 492 nm)” value [1] was 0.55 OD units, the “Reactivity (OD 492 nm)” value [2] was 0.15 OD units and the “Reactivity (OD 492 nm)” value [3] was 3.95 OD units.

B19: HCV 208B-178 (antibody, V domains shown)
VH: DVKLVESGGGLVKLGGSLKLSCAASGFTFSSYYMSWVRQTPEKRLELVAAINSNGGSTYYPDTVKGRFTISRDNAKNTLYLQMSSLKSEDTALYYCARHGGLGRRDWYFDVWGAGTTVTVSS
VL: DIVLTQSPASLAVSLGQRATISCRASESVDNYGISFMHWYQQKPGQPPKLLIYRASNLESGIPARFSGSGSRTDFTLTINPVETDDVATYYCQQSNKDPFTFGSGAKLEIKR
B19 was tested, and the “Reactivity (OD 492 nm)” value [1] was 0.1 OD units, the “Reactivity (OD 492 nm)” value [2] was 0.07 OD units and the “Reactivity (OD 492 nm)” value [3] was 1.69 OD units.

B20: HCV 208B-327 (antibody, V domains shown)
VH: EVQLVESGGGLVKPGGSLKLSCAASGFTFSDSYMYWVRQTPDQRLEWVATISDGGSYTFYPDSVKGRFTISRDNAQNNLYLQMSSLKSEDTAMYYCASPHAGYFGWFAYWGRGTLVTVSA
VL: DIVMTQAAFSNPVTPGTSVSISCRSSKSLLHSNGITYLYWYLQKPGQSPQLLIYQMSKIASGVPDRFRSSGSGTDFTLRISRVEAADVGVYYCAQNLELPWTFGGGTKLEIKR
B20 was tested, and the “Reactivity (OD 492 nm)” value [1] was 0.07 OD units, the “Reactivity (OD 492 nm)” value [2] was 0.05 OD units and the “Reactivity (OD 492 nm)” value [3] was 0.49 OD units.

— patent US20170052184A1 (published 2017)
